According to US9051577 (GREENOVATION BIOTECH, dated 2015):

Key:
Test in all cases: cell-based or functional assay
[1] = molecular target: CD16 (FcgammaRIIIa) 158V/V, high affinity phenotype, on effector cells (PBMC/NK) of a human donor (human) (UniProt P08637)
[2] = molecular target: CD16 (FcgammaRIIIa) 158F/F, low affinity phenotype, on effector cells (PBMC/NK) of a human donor (human) (UniProt P08637)
[3] = molecular target: Fcgamma-RIII receptor (CD16) on human PBMC effector cells, 158 genotype of the donor not stated (human) (UniProt P08637)
Sequence of Fcgamma-RIII receptor (CD16) on human PBMC effector cells, 158 genotype of the donor not stated (human) (P08637 17-254): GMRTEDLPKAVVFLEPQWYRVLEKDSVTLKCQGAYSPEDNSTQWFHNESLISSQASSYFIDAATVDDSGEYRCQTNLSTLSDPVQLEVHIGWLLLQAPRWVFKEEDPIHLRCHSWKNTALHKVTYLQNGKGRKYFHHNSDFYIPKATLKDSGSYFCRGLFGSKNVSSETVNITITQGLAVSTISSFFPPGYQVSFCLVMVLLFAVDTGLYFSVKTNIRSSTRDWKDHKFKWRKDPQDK

[4] = molecular target: Fcgamma-RIII receptor (CD16) on human PBMC effector cells, 158 genotype of the donor not stated (human, UniProt P08637 17-254)
Sequence of Fcgamma-RIII receptor (CD16) on human PBMC effector cells, 158 genotype of the donor not stated (P08637 17-254): as above

[5] = molecular target: CD16 (FcgammaRIIIa) 158V/V, high affinity phenotype, on effector cells (PBMC/NK) of a human donor (human, UniProt P08637 17-254)
Sequence of CD16 (FcgammaRIIIa) 158V/V, high affinity phenotype, on effector cells (PBMC/NK) of a human donor (P08637 17-254 F176V): as the sequence (P08637 17-254) above, with F160V counted along it

[6] = molecular target: CD16 (FcgammaRIIIa) 158F/F, low affinity phenotype, on effector cells (PBMC/NK) of a human donor (human, UniProt P08637 17-254)
Sequence of CD16 (FcgammaRIIIa) 158F/F, low affinity phenotype, on effector cells (PBMC/NK) of a human donor (P08637 17-254): as the sequence (P08637 17-254) above

Sequence of CD16 (FcgammaRIIIa) 158V/V, high affinity phenotype, on effector cells (PBMC/NK) of a human donor (human) (P08637 17-254 F176V): as the sequence (P08637 17-254) above, with F160V counted along it
Sequence of CD16 (FcgammaRIIIa) 158F/F, low affinity phenotype, on effector cells (PBMC/NK) of a human donor (human) (P08637 17-254): as the sequence (P08637 17-254) above

| Molecule | EC50 of ADCC lysis (51Cr release), OVCAR-3 target cells, CD16158 V/V effector cells [1] [µg/mL] | EC50 of ADCC lysis (51Cr release), SK-BR-3 target cells, CD16158 V/V effector cells [1] [µg/mL] | EC50 of ADCC lysis (51Cr release), TF-1 target cells, CD16158 V/V effector cells [1] [µg/mL] | Enhancement (ADCC EC50 of IGN311 against IGN314), OVCAR-3, V/V effector cells [1] [fold] | Enhancement (ADCC EC50 of IGN311 against IGN314), SK-BR-3, V/V effector cells [1] [fold] | Enhancement (ADCC EC50 of IGN311 against IGN314), TF-1, V/V effector cells [1] [fold] | EC50 of ADCC lysis (51Cr release), OVCAR-3 target cells, CD16158 F/F effector cells [2] [µg/mL] | Enhancement (ADCC EC50 of IGN311 against IGN314), OVCAR-3, F/F effector cells [2] [fold] | EC50 of ADCC lysis of SK-BR-3 cells by human PBMC in 10% FCS [3] [µg/mL] | EC50 of ADCC lysis of SK-BR-3 cells by human PBMC in 40% NHS [3] [µg/mL] | EC50 of ADCC lysis of SK-BR-3 cells by human PBMC in 10% FCS [4] [µg/mL] | EC50 of ADCC lysis of SK-BR-3 cells by human PBMC in 40% NHS [4] [µg/mL] | EC50 of ADCC lysis (51Cr release), OVCAR-3 target cells, CD16158 V/V effector cells [5] [µg/mL] | EC50 of ADCC lysis (51Cr release), SK-BR-3 target cells, CD16158 V/V effector cells [5] [µg/mL] | EC50 of ADCC lysis (51Cr release), TF-1 target cells, CD16158 V/V effector cells [5] [µg/mL] | EC50 of ADCC lysis (51Cr release), OVCAR-3 target cells, CD16158 F/F effector cells [6] [µg/mL] |
| --- | --- | --- | --- | --- | --- | --- | --- | --- | --- | --- | --- | --- | --- | --- | --- | --- |
| IGN314, glyco-engineered IGN311 variant expressed in delta-xyl-t/delta-fuc-t double knockout moss (Physcomitrella patens) (antibody) | 0.008 | 0.144 | 0.366 | 39 | 7 | 15 | 0.025 | 40 | 0.052 | 0.126 | – | – | – | – | – | – |
| IGN311, humanized monoclonal IgG anti-Lewis Y antibody (parental, expressed in SP 2.0 cells) (antibody, V domains shown, N-glycan at Asn297 almost completely core-fucosylated, with terminal galactosylation; C-terminal lysine of the heavy chain partly present (both SLSLSPG and SLSLSPGK detected)) VH: EVQLLESGGGLVQPGGSLRLSCAASGFTFSDYYMYWVRQAPEKRLEWVAYISNGGGSSHYVDSVKGRFTISRDNSKNTLYLQMNSLRAEDTALYHCARGMDYGAWFAYWGQGTLVTVSS VL: DIVMTQSPLSLPVTPGEPASISCRSSQSIVHSNGNTYLEWYLQKPGQSPQLLISKVSNRFSGVPDRFSGSGSGTDFTLKISRVEAEDVGVYYCFQGSHVPFTFGQGTKLEIK | – | – | – | – | – | – | – | – | – | – | 0.301 | 1.56 | 0.315 | 1.04 | 5.32 | 0.993 |
